Assay results as given in the DeepSol protein solubility set.

Assay: soluble on expression in E. coli; label from the status in PepcDB or PDB records

Soluble on expression in E. coli, not soluble:
MKQVLVIKNERSSAKKIVSGLTQEGYFILKLHNENEGLNIIYEQDWDIIILDWDSLSISGPEICRQIRLVKTTPIIIVTDNISSKDCVAGLQAGADDYIRKPFAKEELVARVQAILRRSDCNQQKEINFFQFKDLFVDASSNIVKKGGKNLSLTKREYDLLVFLIKNKNTILSREMLLNQVWGYNIVVNPNVVDLYIGYVRKKLKCEKKERYIQTIHGRGYSMIE, MKRHYLFSICILTLLLLAACGSSATEDHELEVPEDQETIEIDGEEEDSSQPVFSDEEALVVDDLLEEESRGEEATEHSEPIEEDTSTPSEASGSENVEETEQQPADENNQAFALNVKKFKLELEWQDGDELEMEYEQKKNEKGKAKVEWDGAHKEKMSGKQAVEWMEDFLSQLDLSEGTNSDRLKSQVYAILDIDPSEVEELDLEIEFFDMAGDPLEHHHHHH, MKRKHLSGKSIGIVFGTFAPMHVGHVDLITKEKRANDNVLVIVSGSNTQKDRGTRTGLSLNRRFRNVREIFYDDELIVVDKLDEADMPPYPEGWVPWVNRVKDLITKNTDGPEKITFYVGESEYVIELNRYYPQAQVELIECSVINISATEIRDNPIENWRFITKPFRRHFTRKVLVVGSASGGKTTLVKDLARTYNAPCSLEYAREYQEKYNVRDDELDTNDYIHLLTDQYAQTAEIIDNGQHSWLIFADTNSTVTKVYIDYYLKENISQEEFDLLDRLYQVTQAREKWDLIFVILPKSNYVDDGSRDMTMADNRTRDWFTKHLLDLLSPFKDKIVILVENCDSDSFFADNYHYAKKTIKERLHIEI, MKRLNCRRKGIRVRILAIDTSNQTLSIAVCENQKILGSYTATVKRNHSLTLMPAIDYLMSQLNLAPTAIDRFVVAEGPGSYTGLRLGVTTAKTLAYTLKKELVGISSLQTLAANCVGQTGLIVPLFDARRKNVYAGAYRFVNGVWQNELPDQHISLRELLEQLKNEPNLFFVGEDVEKFTEEIAQIIPHGEICDVPQWQIPNAAVLAALGSVAEPVENVHGFLPAYLKKVEAEENWLKTHTPNGESYVEKLLEHHHHHH, MKRVALLAVGSFNPPTIAHLRMLEVARSHLETINTQVVEGIMSPVADSYNNKPTLIKSNFRIQMVRAATKSSDWIRADDWECTRTTWTRTIDVLRHHRELVQEKFGSDVGMMLVVGGDVVDSFTRILPDGSNLWNSSDIRTIITEFGLIVLSREGSNPLNTIQSMPAISEFCDRIIQVKDEVCPSGVSSTRLRAAIMNKKSIKYSTPDEVINFIRENNLYQKI, MKRVFGILVCFMLLLSGTSVSFAQSEKTKQDKTEETTPKLAEQASSAIVIEQDTGKVLFDKNPNEKLPPASMTKIMTMLLIMEQVEKGKLKLTDKVRASEHAASMGGSQIFLEPGEEMTVNEMLKGIAIASGNDASVAVAEHIAGSEEGFVNMMNKKAKDLGLKNTHFQNPTGLPAKDHYSTANDMAIMAKELMKYPLIRKYTGKYEDYLREDTDKKFWLVNTNKLVRFYPGVDGVKTGFTTEAKYCLTASAEKNGMRVISVVMGAPTSKERNNQVTKLLDYAFGQYMTKKLYTRGEKIKTVQVGKGKKEKVDLVASDNVSLLMKKGENMDKVKQEVIAEKKVKAPIKKGDALGTLVIKKDKDVLLKQTIVAKEDVAAASWWELFKRSFGMFSTSK, MKRYISIKGIGTYLPKRKVDSLEIDQMLDVPEGWTLKKAGVKTRYFVDGETSSYMGAEAAKKAVEDAKLTWDDIDCIICGSGTIQQAIPSTASLIQEQLGLQHSGIPCFDINSTCLSFITALDTISYAIECGRYKNVVIISSEISSVGLNWGQNESSILFGDGAAAVVITKGDHSSSIIASHMETYSSGAHLSEIRGGGTMIHPREYSEERKEDFLFDMNGRAIFKLSSKYLMKFIDKLLMDTGYSLADIDLIVPHQASGPAMRLIRKKLGVDEERFMTIFEDYGNMISASIPVALFEAIKQKKVQRGNKILLLGTSAGLSIGGILLEY, MKSAEIREAFLRFFEEKGHTRVASSSLIPANDPTLLFTNAGMNQFKDCFLGLEKRAYTRATTSQKCVRAGGKHNDLENVGYTARHHTFFEMLGNFSFGDYFKRDAIHYAWEFLTGEKWLNLPKEKLWVTVYATDDEAYDIWTKEVGVPAERMVRIGDNKGAPYASDNFWAMGDTGPCGPCTEIFFDHGPEIWGGPPGSPEEDGDRYIEIWNNVFMQFNRTADGVMHPLPAPSVDTGMGLERVSAVLQHVHSNYEIDLFQNLLKASAEAIGCANDDAPSLKVVADHIRSCSFLIADGVLPSNEGRGYVLRRIIRRACRHGNKLGARGTFFHKIVAALVAEMGDAFPELKQQQAHIERVLKTEEEQFAKTLEQGLKILEQDLAELQGSVIPGNVVFKLYDTYGFPVDLTNDIARERELTIDEDGFEREMEAQRERARASSAFGMDYNSLVKVDGETRFLGYQGVSGAGQIVALFRDGQAVERLEEGEEGVVVLDQTPFYAESGGQVGDSGYLEAAGVRFDVRDTTKAGGAHLHHGVVARGNLSVGGAVKAEVDASVRQATALNHSATHLLHAALRQVLGDHVQQKGSLVDSQRLRFDFSHFEAIKAEQLKALEDIVNAEIRRNTEVETEETDIDTAKAKGAMALFGEKYGDQVRVLSMGGDFSVELCGGTHVSRTGDIGLFKITSEGGVAAGVRRIEAVTGAAALAYLNGAEEQLKEAASLVKGSRDNLLDKLGALLERNRSLEKELEQLKAKAASAAGDDLSAAAVEIKGAKVLAARLDGLDGKALLALVDQLKNKLGRAVILLGGELDGKVVLVAGVTQDLTGQLKAGELMKQAAAAVGGKGGGRPDMAQGGGTDAAKLDEALALAQRF, MKSGRFIGVMSGTSLDGVDVVLAAIDETMVAQQASLTWPIPVHLKKGILDICQGQPLTLSQLGQLDTQLGRLFAQAVNALLAQQRLQPRDIVAIGCHGQTVWHEPTGEAPHTLQIGDNNHIVAHTGITVVGDFRRRDIALGGQGAPLVPAFHHALLGHPTEKRMVLNIGGIANLSLLFPGQAVRGYDTGPGNMLMDAWIWRQCAQPYDKDAAWAKEGQVILPLLQKMLRDPYFAASAPKSTGREYFNYGWLERHLAAFPGADARDVQATLAELTAVSIAQQVLLNGGCERLMVCGGGGRNPLVMARLAALLPGIEVSTTDKAGISGDDMEALAFAWLAWRTLAGLPGNLPSVTGATEASVLGAIYPANPITQS, MKSIISLMAACAIGAASFAAPAFAQDKGSVGIAMPTKSSARWIDDGNNIVKQLQEAGYKTDLQYADDDIPNQLSQIENMVTKGVKVLVIASIDGTTLSDVLKQAGEQGIKVIAYDRLIRNSGDVSYYATFDNFQVGVLQATSITDKLGLKDGKGPFNIELFGGSPDDNNAFFFYDGAMSVLKPYIDSGKLVVKSGQMGMDKVGTLRWDPATAQARMDNLLSAYYTDAKVDAVLSPYDGLSIGIISSLKGVGYGTKDQPLPVVSGQDAEVPSVKSIIAGEQYSTIFKDTRELAKVTVNMVNAVMEGKEPEVNDTKTYENGVKVVPSYLLKPVAVTKENYKQVLVDGGYYKEDQLK, MKSKLKLHGFNNLTKTLSFNIYDICYAETPEDLQAYVQYIDEEYDAERLTQILTDVVDIIGANILNIARQDYDPQGASVTILISEQPVTPTDSQIEESPGPLPDTILAHLDKSHITVHTYPEIHPVDGIATFRVDIDVSTCGVISPLKALNYLIHQFDSDIVTVDYRVRGFTRDIEGRKHFIDHEINSIQNYLSDDTREAYQMTDVNVYQENLFHTKMLLKDFELENYLFGDATRTLSAEQREQVTERLKHEMLEIFYARNMPR, MKSLITAGLVFSLIASSYSAQAEEKQSGDLAADIGAVGIPVIAGSIALYKEDYDGFWMFAKGATYTLAATQALKYTVKEERPNGEDNLSFPSGHSSSAFQGASYLQFRYGWEYGVPAYIGASLVGYSRVENEHHYWRDVIAGAVLATTIQYLVTDKYLDSNSVMIAPVINDDHVGIAASFSF, MKSRRAFITDAGGDHGSMNTQATPSPQFYLTAPATCPYLPNQMERKVFTHLVGPRAPEMNDLLTQGGFRRSQNIAYRPACETCRACVSVRILTEQFQPTKSMRRVLAANSDVVATVHAAEPSTEQFALFRRYLDHRHQSGGMSDMSALDYAIMVEDTHVNTRIIEYRVREPGSGIDSSKRGELLAVALSDVMSDGLSMVYSFFNPELEKRSLGTFMIIDHITRTRALGLPHVYLGYWVDGSEKMGYKTRYHPQEHLTPRGWEIYSPKEELEHHHHHH

Soluble on expression in E. coli, soluble:
MKQVKIMFLMTMFLGIGLLFFSENAEAAITSNEIGTHDGYDYEFWKDSGGSGSMTLNSGGTFSAQWSNVNNILFRKGKKFDETQTHQQIGNMSINYGATYNPNGNSYLTVYGWTVDPLVEFYIVDSWGTWRPPGGTPKGTINVDGGTYQIYETTRYNQPSIKGTATFQQYWSVRTSKRTSGTISVSEHFRAWESLGMNMGNMYEVALTVEGYQSSGSANVYSNTLTIGGQSGGEQATRVEAESMTKGGPYTSNITSPFNGVALYANGDNVSFNHSFTKANSSFSLRGASNNSNMARVDLRIGGQNRGTFYFGDQYPAVYTINNINHGIGNQLVELIVTADDGTWDAYLDYLEIR, MKRKTIDIITLGCSKNLVDSEQLMRQLEEAGYDVTHDSEKPTGEIAVINTCGFIGDAKEESINMILEFAQEKEEGNLEKLFVMGCLSERYLKELAIEIPQVDKFYGKFNWKGLLQDLGKAYHEELHIERTLTTPKHYAYLKISEGCDRKCSYCAIPIITGRHVSRPIEEILDEVRYLVSNGVKEFQVIAQELTYYGVDLYKKQMLPELIERISEIPGVEWIRLHYAYPAHFPEELFRVMRERDNVCKYMDIALQHISDNMLQRMRRHVTKKETYRLIEQFRKEVPGIHLRTTLMVGHPGETEGDFEELKEFVRKVRFDRMGAFTYSEEEGTYAAANYEDSIPQELKQARLDELMAIQQGISTELSASKVGQKMKVIIDRIEGEYYIGRTEFDSPEVDPEVLIRCEGDNLMIGNFYQVQVIDSDEFDLFGEIILEHHHHHH, MKRLLILTALLPFVGFAQPINTLNNPNQPGYQIPSQQRMQTQMQTQQIQQKGMLNQQLKTQTQLQQQHLENQINNNSQRVLQSQPGERNPARQQMLPNTNGGMLNSNRNPDSSLNQQHMLPERRNGDMLNQPSTPQPDIPLKTIGP, MKRNLLSSAIIVAIMSLGLTGCDDKKAETETLPPANSQPAAPAPEAKPTEAPVAKAEAKPETPAQPVVDEQAVFDEKMDVYIKCYNKLQIPVQRSLARYADWLKDFKQGPTGEERTVYGIYGISESNLAECEKGVKSAVALTPALQPIDGVAVSYIDAAVALGNTINEMDKYYTQENYKDDAFAKGKTLHQTFLKNLEAFEPVAESYHAAIQEINDKRQLAELKNIEEREGKTFHYYSLAVMISAKQINNLISQDKFDAEAAMKKVSELETLVAQAKEADKGGMNFSFINSAGQYQLEAKKYVRRIRDKVPYSDWDKEQLQDANSSWMVEDSFPRALREYNEMVDDYNSLR, MKSEETQPFGITIEGVELSDGDVQFADKSLPLPFSTSIHTLSGEVSTLSSDSSEPARVKFEGEVAEYGLAQVNGTVHAWHPTRQTTINVRFRNLQIPEYSPYTVNFAGRKIADGTMDLDLDYTVNEEKLDGQNNLVLHDLKLGEKMESSDAMDLPLDLAIALLQDSDGLEHHHHHH, MKSKFEASIDNLKEIEMNAYAYELIREIVLPDMLGQDYSSMMYWAGKHLARKFPLESWEEFPAFFEEAGWGTLTNVSAKKQELEFELEGPIISNRLKHQKEPCFQLEAGFIAEQIQLMNDQIAESYEQVKKRADKVVLTVKWDMKDPVMAGDPLEHHHHHH, MKSLQALFGGTFDPVHYGHLKPVETLANLIGLTRVTIIPNNVPPHRPQPEANSVQRKHMLELAIADKPLFTLDERELKRNAPSYTAQTLKEWRQEQGPDVPLAFIIGQDSLLTFPTWYEYETILDNAHLIVCRRPGYPLEMAQPQYQQWLEDHLTHNPEDLHLQPAGKIYLAETPWFNISATIIRERLQNGESCEDLLPEPVLTYINQQGLYR
